Assay results taken from patent US20190169289A1 (Scripps Research, published 2019).
Read-outs that look alike come from different tables or passages of the source. Ends that are not written are not given here.

Tests used:
CD22 [1] = molecular target: T1, CD22 (UniProt P20273 20-847, limits assumed); assay: cell-based or functional assay
CD22 [2] = molecular target: T1, CD22; assay: cell-based or functional assay; remark: listed apart in the source
[3] = molecular target: T2, anti-GCN4 (52SR4 scFv) sCAR with CD8 hinge; assay: flow cytometry of CD8 sCAR T cells stained with AF488-conjugated PNE; filled histogram against a dashed control histogram
T2 construct: 273 is the protein without leader; also called sCAR (long); CD8 sCAR

[4] = molecular target: T3, anti-GCN4 (52SR4 scFv) sCAR with IgG4m hinge; assay: flow cytometry competition on CAR-T cells with the GCN4 CAR (SEQ ID NO. 74): 1 nM labelled GCN4 peptide (GCN4-AF488) as competitor, unlabelled peptide titrated, MFI of the labelled peptide read
T3 construct: disulfide dimer by western blot; also called short-dimeric sCAR; IgG4m sCAR
T3 chain: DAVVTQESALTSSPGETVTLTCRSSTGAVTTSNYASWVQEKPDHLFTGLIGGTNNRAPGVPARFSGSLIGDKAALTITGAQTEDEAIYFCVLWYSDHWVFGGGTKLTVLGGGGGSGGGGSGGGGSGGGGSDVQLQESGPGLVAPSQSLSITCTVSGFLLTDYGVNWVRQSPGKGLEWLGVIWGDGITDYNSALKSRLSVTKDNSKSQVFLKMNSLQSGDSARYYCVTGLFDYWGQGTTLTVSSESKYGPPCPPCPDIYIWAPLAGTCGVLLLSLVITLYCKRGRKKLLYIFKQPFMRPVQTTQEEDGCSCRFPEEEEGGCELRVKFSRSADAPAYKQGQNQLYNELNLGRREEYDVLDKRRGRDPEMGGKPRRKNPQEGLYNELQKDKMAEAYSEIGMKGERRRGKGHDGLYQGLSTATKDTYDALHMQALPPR
Text: Un-labelled peptide binding efficiency was indirectly shown by measuring the mean fluorescence intensity (MFI) staining with the labelled peptide.
Cells were then washed twice with cold PBS to remove the free labelled peptide before being analyzed using the BD Accuri flow cytometer.

[5] = molecular target: T2, anti-GCN4 (52SR4 scFv) sCAR with CD8 …; assay: flow cytometry on sCAR-T cells
anti-Her2-FLAG switch = assay: ELISA, absorbance at 375nm, of anti-FLAG antibody 5B3 on the anti-Her2-FLAG switch; the text gives the same value as an apparent affinity of 2.2×10^-10 M
CD22 [6] = molecular target: T1, CD22; assay: cell-based or functional assay; remark: listed apart in the source
CD22 [7] = molecular target: T1, CD22; assay: cell-based or functional assay; remark: listed apart in the source
CD22 [8] = molecular target: T1, CD22; assay: cell-based or functional assay; remark: listed apart in the source
CD22 [9] = molecular target: T1, CD22; assay: cell-based or functional assay; remark: listed apart in the source
[10] = molecular target: T2, anti-GCN4 (52SR4 scFv) sCAR with CD8 …; assay: flow cytometry on CD8 sCAR-T cells, switch 30 min at 4 C, detected with PE-conjugated goat anti-human kappa chain antibody, MFI
Text: Cells were washed two times and analyzed using the Accuri flow cytometer (BD).

B1: anti-CD22 (clone hLL2) Fab CTBV3 switch (3 GGGGS linker) (Fab)
light: DIQLTQSPSSLSASVGDRVTMSCKSSQSVLYSANHKNYLAWYQQKPGKAPKLLIYWASTRESGVPSRFSGSGSGTDFTFTISSLQPEDIATYYCHQYLSSWTFGGGTKLEIKRTVAAPSVFIFPPSDEQLKSGTASVVCLLNNFYPREAKVQWKVDNALQSGNSQESVTEQDSKDSTYSLSSTLTLSKADYEKHKVYACEVTHQGLSSPVTKSFNRGECGGGGSGGGGSGGGGSNYHLENEVARLKKL
heavy: QVQLVQSGAEVKKPGSSVKVSCKASGYTFTSYWLHWVRQAPGQGLEWIGYINPRNDYTEYNQNFKDKATITADESTNTAYMELSSLRSEDTAFYFCARRDITTFYWGQGTTVTVSSARTKGPSVFPLAPSSKSTSGGTAALGCLVKDYFPEPVTVSWNSGALTSGVHTFPAVLQSSGLYSLSSVVTVPSSSLGTQTYICNVNHKPSNTKVDKKVEPKSCGGGGSGGGGSGGGGSNYHLENEVARLKKL
B1 was tested, and the “cytotoxicity at 0.01 pM” value (CD22 [1]) was 2.54, the “cytotoxicity at 0.1 pM” value (CD22 [1]) was 7.9 and the “cytotoxicity at 10 pM” value (CD22 [1]) was 17. The “cytotoxicity at 100 pM” value (CD22 [1]) was 51.3, the “cytotoxicity at 1000 pM” value (CD22 [1]) was 45.3 and the “cytotoxicity at 10000 pM” value (CD22 [1]) was 41.5. The EC50 of cytotoxicity (CD22 [2]) was 0.0149 nM.

B2: yeast transcription factor GCN4 minimal binding peptide NYHLENEVARLKKL (peptide)
peptide: NYHLENEVARLKKL
modifications: not fully specified
notes: also called PNE
B2: binds [3]; binds [4].

B3: anti-CD22 (clone hLL2) Fab CTBV2 switch (2 GGGGS linker) (Fab)
light: DIQLTQSPSSLSASVGDRVTMSCKSSQSVLYSANHKNYLAWYQQKPGKAPKLLIYWASTRESGVPSRFSGSGSGTDFTFTISSLQPEDIATYYCHQYLSSWTFGGGTKLEIKRTVAAPSVFIFPPSDEQLKSGTASVVCLLNNFYPREAKVQWKVDNALQSGNSQESVTEQDSKDSTYSLSSTLTLSKADYEKHKVYACEVTHQGLSSPVTKSFNRGECGGGGSGGGGSNYHLENEVARLKKL
heavy: QVQLVQSGAEVKKPGSSVKVSCKASGYTFTSYWLHWVRQAPGQGLEWIGYINPRNDYTEYNQNFKDKATITADESTNTAYMELSSLRSEDTAFYFCARRDITTFYWGQGTTVTVSSARTKGPSVFPLAPSSKSTSGGTAALGCLVKDYFPEPVTVSWNSGALTSGVHTFPAVLQSSGLYSLSSVVTVPSSSLGTQTYICNVNHKPSNTKVDKKVEPKSCGGGGSGGGGSNYHLENEVARLKKL
B3 was tested, and the “cytotoxicity at 0.01 pM” value (CD22 [1]) was 7.08, the “cytotoxicity at 0.1 pM” value (CD22 [1]) was 2.9 and the “cytotoxicity at 10 pM” value (CD22 [1]) was 22.1. For the same binder, the “cytotoxicity at 100 pM” value (CD22 [1]) was 45.8, the “cytotoxicity at 1000 pM” value (CD22 [1]) was 45.8 and the “cytotoxicity at 10000 pM” value (CD22 [1]) was 46. It also gave an EC50 of cytotoxicity (CD22 [2]) of 0.0126 nM.

B4: anti-CD19 (FMC63) IgG LCC1 switch (antibody)
light: DIQMTQTTSSLSASLGDRVTISCRASQDISKYLNWYQQKPDGTVKLLIYHTSRLHSGVPSRFSGSGSGTDYSLTISNLEQEDIATYFCQQGNTLPYTFGGGTKLEIKRTVAAPSVFIFPPSDEQLKSGTASVVCLLNNFYPREAKVQWKVDNALQSGNSQESVTEQDSGGGGSNYHLENEVARLKKLGGGGSDSTYSLSSTLTLSKADYEKHKVYACEVTHQGLSSPVTKSFNRGEC
heavy: EVKLQESGPGLVAPSQSLSVTCTVSGVSLPDYGVSWIRQPPRKGLEWLGVIWGSETTYYNSALKSRLTIIKDNSKSQVFLKMNSLQTDDTAIYYCAKHYYYGGSYAMDYWGQGTSVTVSSASTKGPSVFPLAPSSKSTSGGTAALGCLVKDYFPEPVTVSWNSGALTSGVHTFPAVLQSSGLYSLSSVVTVPSSSLGTQTYICNVNHKPSNTKVDKKVEPKSCDKTHTCPPCPAPPVAGPSVFLFPPKPKDTLMISRTPEVTCVVVDVSHEDPEVKFNWYVDGVEVHNAKTKPREEQYNSTYRVVSVLTVLHQDWLNGKEYKCKVSNKGLPSSIEKTISKAKGQPREPQVYTLPPSRDELTKNQVSLTCLVKGFYPSDIAVEWESNGQPENNYKTTPPVLDSDGSFFLYSKLTVDKSRWQQGNVFSCSVMHEALHNHYTQKSLSLSPGK
notes: also called LCC1 IgG; IgG (FcNull) switch
B4: binds [5].

B5: anti-FLAG monoclonal antibody (clone: 5B3) (antibody, V domains shown)
VH: EVQLQQSGAELVKPGASVKLSCTASGFNIKDYYMHWVKQRTEQGLEWIGRIDPEDGETKYAPKFQGKATITADTSSKTAYLQLSSLTSEDTAVYYCARLKGGYWGQGTTLTVSS
VL: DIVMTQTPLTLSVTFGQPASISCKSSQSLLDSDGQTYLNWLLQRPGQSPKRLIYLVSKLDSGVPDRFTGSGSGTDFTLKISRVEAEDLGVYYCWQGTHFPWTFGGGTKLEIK
notes: Mouse hybridoma antibody
B5 showed an EC50 (anti-Her2-FLAG switch) of 0.22 nM.

B6: anti-CD22 (clone hLL2) Fab CTBV switch (Fab)
light: DIQLTQSPSSLSASVGDRVTMSCKSSQSVLYSANHKNYLAWYQQKPGKAPKLLIYWASTRESGVPSRFSGSGSGTDFTFTISSLQPEDIATYYCHQYLSSWTFGGGTKLEIKRTVAAPSVFIFPPSDEQLKSGTASVVCLLNNFYPREAKVQWKVDNALQSGNSQESVTEQDSKDSTYSLSSTLTLSKADYEKHKVYACEVTHQGLSSPVTKSFNRGECGGGGSNYHLENEVARLKKL
heavy: QVQLVQSGAEVKKPGSSVKVSCKASGYTFTSYWLHWVRQAPGQGLEWIGYINPRNDYTEYNQNFKDKATITADESTNTAYMELSSLRSEDTAFYFCARRDITTFYWGQGTTVTVSSARTKGPSVFPLAPSSKSTSGGTAALGCLVKDYFPEPVTVSWNSGALTSGVHTFPAVLQSSGLYSLSSVVTVPSSSLGTQTYICNVNHKPSNTKVDKKVEPKSCGGGGSNYHLENEVARLKKL
B6 was tested, and the EC50 of cytotoxicity (CD22 [6]) was 0.0691 nM, the “cytotoxicity at 0.01 pM” value (CD22 [7]) was 1.34 and the “cytotoxicity at 0.1 pM” value (CD22 [7]) was 0.18. For the same binder, the “cytotoxicity at 1 pM” value (CD22 [7]) was 1.38, the “cytotoxicity at 10 pM” value (CD22 [7]) was 4.1 and the “cytotoxicity at 100 pM” value (CD22 [7]) was 28.2. The “cytotoxicity at 1000 pM” value (CD22 [7]) was 46.9, the “cytotoxicity at 10000 pM” value (CD22 [7]) was 44.2 and the “cytotoxicity at 0.01 pM” value (CD22 [1]) was 4.6. For the same binder, the “cytotoxicity at 0.1 pM” value (CD22 [1]) was 3.6, the “cytotoxicity at 10 pM” value (CD22 [1]) was 10.4 and the “cytotoxicity at 100 pM” value (CD22 [1]) was 42.2. For the same binder, the “cytotoxicity at 1000 pM” value (CD22 [1]) was 47.4, the “cytotoxicity at 10000 pM” value (CD22 [1]) was 44.9 and the EC50 of cytotoxicity (CD22 [2]) was 0.0288 nM. The EC50 of cytotoxicity (CD22 [8]) was 0.0555 nM, the “cytotoxicity at 0.06 pM” value (CD22 [9]) was -3.84 and the “cytotoxicity at 0.30 pM” value (CD22 [9]) was -0.28. The “cytotoxicity at 1.52 pM” value (CD22 [9]) was -4.59, the “cytotoxicity at 7.62 pM” value (CD22 [9]) was 0.02 and the “cytotoxicity at 38.10 pM” value (CD22 [9]) was 6.77. The “cytotoxicity at 952.40 pM” value (CD22 [9]) was 21.7 and the “cytotoxicity at 4762.00 pM” value (CD22 [9]) was 24.3.

B7: anti-CD22 (clone hLL2) IgG CTBV switch (antibody)
light: DIQLTQSPSSLSASVGDRVTMSCKSSQSVLYSANHKNYLAWYQQKPGKAPKLLIYWASTRESGVPSRFSGSGSGTDFTFTISSLQPEDIATYYCHQYLSSWTFGGGTKLEIKRTVAAPSVFIFPPSDEQLKSGTASVVCLLNNFYPREAKVQWKVDNALQSGNSQESVTEQDSKDSTYSLSSTLTLSKADYEKHKVYACEVTHQGLSSPVTKSFNRGECGGGGSNYHLENEVARLKKL
heavy: QVQLVQSGAEVKKPGSSVKVSCKASGYTFTSYWLHWVRQAPGQGLEWIGYINPRNDYTEYNQNFKDKATITADESTNTAYMELSSLRSEDTAFYFCARRDITTFYWGQGTTVTVSSARTKGPSVFPLAPSSKSTSGGTAALGCLVKDYFPEPVTVSWNSGALTSGVHTFPAVLQSSGLYSLSSVVTVPSSSLGTQTYICNVNHKPSNTKVDKKVEPKSCDKTHTCPPCPAPPVAGPSVFLFPPKPKDTLMISRTPEVTCVVVDVSHEDPEVKFNWYVDGVEVHNAKTKPREEQYNSTYRVVSVLTVLHQDWLNGKEYKCKVSNKGLPSSIEKTISKAKGQPREPQVYTLPPSRDELTKNQVSLTCLVKGFYPSDIAVEWESNGQPENNYKTTPPVLDSDGSFFLYSKLTVDKSRWQQGNVFSCSVMHEALHNHYTQKSLSLSPGKGGGGSNYHLENEVARLKKL
For B7, the EC50 of cytotoxicity (CD22 [8]) was 0.0347 nM, the “cytotoxicity at 0.06 pM” value (CD22 [9]) was 4.45 and the “cytotoxicity at 0.30 pM” value (CD22 [9]) was -3.82. The “cytotoxicity at 1.52 pM” value (CD22 [9]) was 5.34, the “cytotoxicity at 7.62 pM” value (CD22 [9]) was 7.92 and the “cytotoxicity at 190.48 pM” value (CD22 [9]) was 29.8. For the same binder, the “cytotoxicity at 952.40 pM” value (CD22 [9]) was 28.6 and the “cytotoxicity at 4762.00 pM” value (CD22 [9]) was 38.

B8: anti-CD19 (FMC63) Fab LCNT switch (Fab, V domains shown)
VH: EVKLQESGPGLVAPSQSLSVTCTVSGVSLPDYGVSWIRQPPRKGLEWLGVIWGSETTYYNSALKSRLTIIKDNSKSQVFLKMNSLQTDDTAIYYCAKHYYYGGSYAMDYWGQGTSVTVSS
VL: DIQMTQTTSSLSASLGDRVTISCRASQDISKYLNWYQQKPDGTVKLLIYHTSRLHSGVPSRFSGSGSGTDYSLTISNLEQEDIATYFCQQGNTLPYTFGGGTKLEIKR
notes: also called LCNT Fab
With B8 the “EC50 (read off the curve)” value [10] was ~2 nM.
